Experimental data reported in US9328143B2, “Peptide derivatives and use thereof as carriers for molecules in the form of conjugates” (VECT-HORUS, priority 2008, dated 2016).
Where no end group is shown, it is not given here. [ ]: non-standard residue; d: D form. Rhodamine = not defined here

Columns and labels:
[1] = tested on: bovine brain microvascular endothelial cells (BBMEC); assay: Binding and/or internalisation in endothelial cells of in vitro BBB model; format: cell-based; conditions: rhodamine fluorescence after cell lysis, 2 h, 5 h, 24 h
Experimental: The medium is changed twice per week. […] This BBMEC medium is changed three times per week.
This analysis was carried out by lysis of endothelial cells at various times (2 h, 5 h, 24 h), and by fluorimetric measurements of the quantity of fluorescence (rhodamine) associated with the cells (membrane and cytoplasmic compartments obtained by centrifugation of these cells after lysis).

hLDLR [2] = biological target: T1, hLDLR (Homo sapiens, UniProt P01130); assay: Binding and endocytosis of tracer-conjugated synthesised peptides in CHO-hLDLR-GFP cells (fluorescence, immunocytochemistry); format: cell-based; parameters: expressed in transfected cells; conditions: CHO-LDLR-GFP cells, tracer-conjugated peptide, vs control peptides
Description: GFP fluorescence is visible in green (A1, B1 and C1); that related to peptides, visualised by rhodamine or by binding of an anti-S-Tag antibody coupled to Alexa594 is visible in red (A2, B2 and C2); and the superimposing of red and green stains is visible in yellow/orange (A3, B3 and C3). […] S-Tag (a 15 amino acid peptide derived from sequence 1-15 of bovine pancreatic ribonuclease A) on the one hand can be recognised by an anti-S-Tag antibody for immunocytochemistry or FACS approaches, and on the other hand can reconstitute enzymatic activity by binding with ribonuclease S-protein (C-term portion, amino acids 21-124) in tests of activity in vitro using the FRETWorks S-Tag assay kit (Novagen 70724-3). The ribonuclease thus activated digests an RNA substrate releasing a masked fluorescent agent visualised by FRET (fluorescence resonance energy transfer) and quantified in a 96-well plate in a Beckmann spectrofluorimeter. For these FRET experiments, control CHO cells and GFP fused in the C-term position with hLDLR and mLDLR, which generates strong background noise at the wavelengths used for FRET, was replaced by red fluorescent protein (RFP). The stable cell lines generated for the FRET experiments are thus CHO-RFP and CHO-hLDLR-RFP. Experiments involving the incubation of peptides on various cells expressing hLDLR were performed.

[3] = tested on: bovine brain microvascular endothelial cells (BBMEC); assay: Passage (Pe) across in vitro BBB model
Experimental: The potential toxic effects of peptides on endothelial cells, the binding/accumulation of peptides in these cells, and the passage by transcytosis of peptides were evaluated on in vitro BBB models. The cells necessary to set up the model (co-culture of endothelial cells from brain microvessels and astrocytes) are bovine cells (bovine brain microvascular endothelial cells, BBMEC) sold by Cellial Technologies (Lens, France).
The in vitro BBB model brings into play a co-culture of BBMECs and astrocytes. […]
The culture medium of the lower chamber is collected at various times and fluorescence quantified by fluorimetric analysis. The results are expressed as endothelial surface permeability (Pe) in units of 10^−3 cm/min. […] Transendothelial electrical resistance (TEER), measured with an ohmmeter and expressed in ohm·cm^2, also makes it possible to measure BBB integrity in vitro during tests of passage across the BBB. […]
This analysis is carried out by measuring by fluorimetry the quantity of fluorescence accumulated in the receiver wells at various times (1 h, 4 h, 24 h). The integrity of the BBB in the various wells analysed was evaluated by simultaneous measurement of the level of LY that passes from one compartment to the other as a function of time.

[4] = In situ brain perfusion in mouse, transport across the BBB; format: in vivo
Experimental: The in situ brain perfusion technique (in adult male OF1 mouse) is used here to select the best vectors and to provide proof of their mechanism of action for their passage in the brain across the BBB.
Radioactive peptides with high specific radioactivity (SRA, up to 100 Ci/mmol) are prepared by a strategy of acylation of the N-term amine function by tritiated propionic (or propanoic) anhydride or tritiated N-propionyl-succinimide (NPS).
The tritiation reaction of peptide vectors SEQ ID NO: 11 and SEQ ID NO: 48 in the N-term position by propionylation is carried out in DMF (1 mg peptide in 100 μl to 450 μl according to solubility) by adding 0.1 equivalent of tritiated NPS for 5 min at room temperature, then 0.9 equivalent of cold NPS (non-tritiated) for 1 h, and then a new equivalent of cold NPS for 5 h. The reaction medium is then left at 4° C. overnight and purified the following day by HPLC. The SRA for each tritiated peptide is between 5 Ci/mmol and 10 Ci/mmol (theoretically on the order of 7.7 Ci/mmol). The total quantity of radioactivity prepared by synthesis is between 600 μCi and 950 μCi.
The techniques briefly summarised below were developed to study the distribution in the brain of active substances and, in particular, the role of the BBB and, more particularly, of LDLR in the penetration of these molecules in the brain. In situ brain perfusion techniques are among the most technically demanding and the most difficult to perform in the mouse. However, in situ brain perfusion (like in vitro models) enables total control of the composition of the artificial perfusate in order to maintain the cells and vascularisation of the brain under normal physiological and anatomical conditions within the animal, without the disrupting factor of systemic distribution.
(§1) This strategy of in situ brain perfusion normally carried out in the rat was adapted for mouse (Dagenais et al., 2000, J Cereb Blood Flow Metab., 20(2), 381-6) in order to broaden its application for evaluating the parameters of transport kinetics at the BBB and the blood-retinal barrier, in transgenic and KO mutant mice for the receptors, enzymes or transporters of active substances. It involves catheterisation of a carotid artery in anaesthetised OF 1 mice and ligature of some branches of this carotid artery (external, thyroidal, occipital) in order to specifically perfuse the internal carotid and pterygopalatine arteries, which are used to evaluate the uptake in the brain of the vectors and conjugates. The catheter makes it possible to replace general circulation by infusion with a well-controlled perfusate (bicarbonate buffer, plasma or blood) by passing by the carotid. Oxygenated Krebs bicarbonate buffer is first used to evaluate the capacities of the vectors and conjugates to gain access to the brain. After catheterisation of the carotid, endogenous blood flow is stopped by sectioning the ventricles of the heart in order to avoid the mixture of buffer with blood and elevation in blood pressure. The duration of the fixed flow-rate perfusion is monitored. The buffer perfusion can be extended up to 20 min, or up to 1 h in the presence of oxygen transporters (washed erythrocytes) for studies of receptor-mediated transport (RMT).
The study of peptide vector SEQ ID NO: 11 made it possible to determine its brain transport or transfer coefficient (Kin). The duration of brain perfusion for these experiments is 5 min with a perfusate flow rate of 2 ml/min. Thus, the calculation of the Kin (volume of distribution over time of brain perfusion) of peptide vector SEQ ID NO: 11 gives a value of 3.5±0.2×10^−4 ml/s/g.

[5] = In situ perfusion in mouse, transport across the blood-retinal barrier; format: in vivo
Description: as §1
In addition, the Kin of these various peptides, across the blood-retinal barrier (BRB), were also determined. Kin of SEQ ID NO: 11=1.2±0.2×10^−4 ml/s/g Kin of SEQ ID NO: 48=2.4±0.3×10^−4 ml/s/g Kin of SEQ ID NO: 73=0.0±0.0×10^−4 ml/s/g Kin of SEQ ID NO: 72=11.5±3.3×10^−4 ml/s/g Kin of SEQ ID NO: 74=1.8±0.2×10^−4 ml/s/g

hLDLR [6] = biological target: T1, hLDLR; assay: Displacement of SEQ ID NO: 11/S-Tag on CHO-hLDLR-RFP cells (FRET); format: binding; parameters: expressed in transfected cells; conditions: 10 μM peptide vs 10 μM SEQ ID NO: 11/S-Tag
Experimental: For the FRET approaches, cells are washed twice with 2 ml PBS and then incubated for 1 h at 37° C. with 250 μl peptide solution. They are again washed twice with 2 ml PBS and then twice with 1 ml PBS, and then scraped in 1 ml PBS and centrifuged for 5 min at 1,250 rpm. The supernatant is then aspirated and the cell pellet is lysed in 80 μl PBS+0.1% Triton X100. Twenty μl of each cell lysate are analysed by measuring fluorescence emission after the FRET reaction.
A study of the structure/activity (affinity) relationships was carried out on peptide vector SEQ ID NO: 11 via the alanine scanning (Ala-scan) technique and by N- and C-term truncation in order to determine the importance of each of the 15 constitutive amino acids of this peptide. […] Briefly, the CHO-hLDLR-RFP cells used are adherent and at confluence.
They are grown in six-well plates. Three wells of cells are used per condition.
A solution containing 10 μM peptide SEQ ID NO: 11/S-Tag is prepared in HamF12-1% BSA culture medium. To this solution is added 10 μM peptide resulting from the Ala-scan to be evaluated (competition). […]

hLDLR [7] = biological target: T1, hLDLR; assay: FACS: binding of bacterial viruses expressing peptides to HUVEC; parameters: endogenous in cells; host or cells: HUVEC (human umbilical vein endothelial cells), not genetically modified
Experimental: Evaluation by FACS of the interaction between HUVEC and two clones of bacterial viruses expressing peptides, one cyclic (SEQ ID NO: 11), the other linear (SEQ ID NO: 21), with affinity for hLDLR, compared with control bacterial viruses not expressing peptides with affinity for this receptor.
Qualitative immunocytochemistry was supplemented with quantitative flow cytometry (FACS) with suspended cells (GFP cell line, CHO-hLDLR-GFP cell line, human fibroblasts, HUVEC). These cells were grown in culture medium, mechanically unbound and dissociated (without trypsin), centrifuged, resuspended and incubated in the presence of various bacterial virus clones and anti-LDLR antibody, for 20 min at 4° C. in order to avoid any process of endocytosis. After washings, the bacterial viruses bound to cells were visualised with anti-viral envelope protein antibody. FACS analyses were carried out with a FACSCanto system (Becton Dickinson) using BD FACSDiva software. The number of positive cells was standardised with 5,000 events for each test. The results were expressed in arbitrary units of fluorescence.
FIGS. 9, 10, 11 correspond to the results obtained for peptides SEQ ID NO: 11, SEQ ID NO: 12 and SEQ ID NO: 21 on cells of the CHO-hLDLR-GFP cell line (FIG. 9), human fibroblasts (FIG. 10) and HUVEC (FIG. 11).

hLDLR [8] = biological target: T1, hLDLR; assay: FACS on HUVEC: competition between peptides expressed by bacterial viruses and natural ligand LDL; format: binding; parameters: endogenous in cells; host or cells: HUVEC (human umbilical vein endothelial cells), not genetically modified
Description: Evaluation by FACS on HUVEC of competition between the peptides expressed by the bacterial viruses with affinity for LDLR and its natural ligand LDL.
I—Graph representing the percentage of shift of the fluorescence signal in zone Q2 of graphs A-H obtained by FACS. […] Adding LDL leads to an 85% loss of signal in Q2 in […], indicating competition between the bacterial virus corresponding to peptide sequence SEQ ID NO: 21 and LDL at the site where LDL binds to hLDLR. The equally strong signal in Q2 of the bacterial viruses that express peptide SEQ ID NO: 11 (shift greater than 70% compared to control bacterial viruses) is only slightly shifted (17%) by adding LDL.
First, it is shown that the binding rate of bacterial viruses expressing peptides with affinity for hLDLR (SEQ ID NO: 21 and SEQ ID NO: 11 are used here as examples) is proportional to the level of LDLR expression by HUVEC. FACS experiments carried out in the presence of LDL made it possible to show and quantify a strong shift (85%) of LDL by linear peptides (for example SEQ ID NO: 21), but a small shift (17%) by cyclic peptides (for example SEQ ID NO: 11).

[9] = mouse in situ brain perfusion, BBB, 5 min, perfusate flow rate 2 ml/min, tritiated peptide

T1 sequence (P01130 22-860): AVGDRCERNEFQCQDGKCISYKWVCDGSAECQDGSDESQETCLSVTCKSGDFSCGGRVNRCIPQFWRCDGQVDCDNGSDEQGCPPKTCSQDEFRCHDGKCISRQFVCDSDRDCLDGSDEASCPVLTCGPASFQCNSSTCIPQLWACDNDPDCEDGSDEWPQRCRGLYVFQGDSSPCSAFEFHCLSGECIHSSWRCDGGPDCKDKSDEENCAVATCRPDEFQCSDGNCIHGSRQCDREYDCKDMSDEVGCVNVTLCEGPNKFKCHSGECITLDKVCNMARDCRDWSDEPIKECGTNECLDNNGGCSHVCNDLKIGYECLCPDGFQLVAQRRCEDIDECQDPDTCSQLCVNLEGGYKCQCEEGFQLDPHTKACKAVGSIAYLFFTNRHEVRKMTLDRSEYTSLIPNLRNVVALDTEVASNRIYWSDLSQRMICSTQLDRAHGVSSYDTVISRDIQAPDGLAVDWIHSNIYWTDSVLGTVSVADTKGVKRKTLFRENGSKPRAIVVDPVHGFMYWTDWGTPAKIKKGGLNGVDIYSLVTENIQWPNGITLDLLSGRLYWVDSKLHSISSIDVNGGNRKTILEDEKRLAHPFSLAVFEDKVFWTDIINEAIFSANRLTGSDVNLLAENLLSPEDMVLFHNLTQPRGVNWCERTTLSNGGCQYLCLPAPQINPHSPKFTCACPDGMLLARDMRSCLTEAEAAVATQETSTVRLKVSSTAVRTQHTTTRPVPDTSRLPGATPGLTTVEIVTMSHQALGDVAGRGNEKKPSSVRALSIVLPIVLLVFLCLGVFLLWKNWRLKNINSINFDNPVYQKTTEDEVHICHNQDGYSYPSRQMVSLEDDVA

In the case of “SEQ ID NO: 1 conjugated with rhodamine: peptide SEQ ID NO: 1 conjugated in the C-term position with rhodamine via a spacer of three Gly residues (HLDCMPRGCFRNGGG-Rhodamine; cysteine pairing not given here; reading uncertain)”, the “binding and/or internalisation rate in endothelial cells” value [1] is reported as “more affinity for endothelial cells in an in vitro BBB model than the control peptide”, the “binding to cells expressing hLDLR” value (hLDLR [2]) is reported as “bind well to CHO-LDLR-GFP cells” and the “endocytosis / intracellular accumulation” value (hLDLR [2]) is reported as “incorporated by endocytosis”. For the same substance, the “endocytosis / intracellular accumulation” value (hLDLR [2]; listed as SEQ ID NO: 1/rhodamine) was “high levels of intracellular staining”, the “rate of passage (Pe) across in vitro BBB” value ([3]; 1 h and 4 h) was “cannot be distinguished from nonspecific or paracellular passage” and the “rate of passage (Pe) across in vitro BBB” value ([3]; 24 h) was “quite significantly higher than that of the control peptide”.

In the case of (D)-CMPRLRGC [SEQ ID NO: 48], the “Kin (brain transport or transfer coefficient)” value ([4]; mouse, in vivo) is reported as 4.8±0.4 ×10^−4 ml/s/g, the “improvement of passage in the brain, factor vs SEQ ID NO: 11” value ([4]; mouse, in vivo) is reported as 1.37 and the “Kin across the blood-retinal barrier (BRB)” value ([5]; mouse, in vivo) is reported as 2.4±0.3 ×10^−4 ml/s/g. The “in vitro affinity for LDLR (displacement of SEQ ID NO: 11/S-Tag)” value (hLDLR [6]) was “excellent affinity”.

With “CMPRC [SEQ ID NO: 73, control peptide for the brain perfusion study, reference compound]” the “Kin (brain transport or transfer coefficient)” value ([4]; mouse, in vivo) was 1.5±0.2 ×10^−4 ml/s/g and the “Kin across the blood-retinal barrier (BRB)” value ([5]; mouse, in vivo) was 0.0±0.0 ×10^−4 ml/s/g.

For “Y-(D)-AGFLR (Y[dA]GFLR) [SEQ ID NO: 74, analgesic therapeutic peptide, dalargin, reference compound]”, the “Kin (brain transport or transfer coefficient)” value [4, 9] was 0.9±0.1 ×10^−4 ml/s/g and the “Kin across the blood-retinal barrier (BRB)” value ([5]; mouse in situ perfusion, BRB) was 1.8±0.2 ×10^−4 ml/s/g.

For “Y-(D)-AGFLRGFAL-(D)-CMPRLRGC (Y[dA]GFLRGFAL[dC]MPRLRGC; cysteine pairing not given here) [SEQ ID NO: 72]”, the “Kin (brain transport or transfer coefficient)” value [4, 9] was 19.6±3.9 ×10^−4 ml/s/g, the “passage in the brain, factor vs non-vectorised free dalargin (SEQ ID NO: 74)” value ([4]; ratio of Kin, BBB) was 21.78 and the “Kin across the blood-retinal barrier (BRB)” value ([5]; mouse in situ perfusion, BRB) was 11.5±3.3 ×10^−4 ml/s/g. The “BRB crossing, factor vs non-vectorised free dalargin (SEQ ID NO: 74)” value ([5]; ratio of Kin, BRB) was 6.39.

With TPSAHAMALQSLSVG [SEQ ID NO: 21] the “shift of the signal in Q2 (FACS)” value (hLDLR [7]; peptide expressed by bacterial virus clone, vs control bacterial viruses) was “significant shift”, the “percentage of shift of the fluorescence signal in zone Q2” value (hLDLR [7]; peptide expressed by bacterial viruses, without LDL) was “more than 55.8%” and the “effect of LDL on binding of peptides expressed by bacterial viruses” value (hLDLR [8]; FACS, LDL added) was “strongly decreases the binding”. The “loss/shift of signal in Q2 on adding LDL” value (hLDLR [8]; peptide expressed by bacterial viruses, in the presence of LDL) was 85%.
